Reference: PMC12916166 (The Journal of cell biology, 2025)

Biological target: Aip5C-L (997–1234) (S. cerevisiae, UniProt P43597 997-1233)
Assay: fluorescence polarisation

Sequence of Aip5C-L (997–1234) (P43597 997-1233): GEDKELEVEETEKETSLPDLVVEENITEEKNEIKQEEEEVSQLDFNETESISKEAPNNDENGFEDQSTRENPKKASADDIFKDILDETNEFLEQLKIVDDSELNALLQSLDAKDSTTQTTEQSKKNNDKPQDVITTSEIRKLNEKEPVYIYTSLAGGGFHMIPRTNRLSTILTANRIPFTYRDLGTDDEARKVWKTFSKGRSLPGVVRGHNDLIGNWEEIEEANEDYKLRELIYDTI

- Kd: 85 nM
B1: Bud6 (1–145)-kCk-Alexa488 (domain or fragment, S. cerevisiae, UniProt P41697 1-145, looked up)
chain: MKMAVDDPTYGTPKIKRTASSSSSIETTVTKLLMSTKHLLQVLTQWSKGTTSGRLVSDAYVQLGNDFKVVSKFFMHAKVDMSDVGDVPMALRRVLEVTLREPPSDETLNKHLPKIREIIVTLLDKLKVKQAILKNMQQEHRISVK
modifications: Alexa488 maleimide on the single cysteine of the C-terminal KCK sequence
